{"source": "patent US20040170969", "tested_on": "recombinant MOB expressed as a GST-fusion protein"}
{"substance": "FLAG-Ndr (cells treated with okadaic acid)", "values": [{"measurement": "phosphorylation of GST-MOB by Ndr (FIG. 19)", "value": "recombinant MOB expressed as a GST-fusion protein is specifically phosphorylated by active Ndr"}]}
